According to the DeepSol protein solubility set:

Assay: soluble on expression in E. coli; label from the status in PepcDB or PDB records

Row | Sequence | soluble on expression in E. coli
1 | MRERRYSSTSPERLAAALFDVAAESGLEGASVREVAKRAGVSIGAVQHHFSTKDEMFAFALRTLVDKLLARLSEVERGGDPARALFAAMSQLLPLDEARSREAHVMAAFAVRAATSPSLAEIRRKTLFTIRTGLSAVLIGIGTPEAETRAALLLATVDGLALDAIGSPALYPPEYLEHALDIQIGMILQGADVVPSSSIELAS | soluble
2 | MRGFLFSMAQHFSLSAEARHLSIQVDELSDVEILSLLKTARWGNADNINDIECPHCHVRHEAYFIKTRQQWQCKHCCYRFSITAGTIFHLAKLSLRKILKALRYFALKSKGLSAIELSHEINVQYKTAWGLRHKFREALDKTKDLTPLKDEVHIDGAYTNYYIRPKNFRHKRIDRRKKRYQREDKSCVLVFRQRAANQAQMKGADRSIVALIKEENTQDVLDLTQRLVKQGSTIHTDENPAYDSLQFLYDLWRVNHSQEYCSIEGITNNLAESFFARFRRMIIGVHHKMANRYMLYYANEIAWREDNRLKTDREKLNDVLQRCIKTKPSRHFTGYWQGSKKSPETFGLESINASNDSHYLIAALEHHHHHH | not soluble
3 | MRGKAWMLTAVALTGLGLAQIRADGSSTVYPITQAVAEEFVTRNPQVRISVAFSGTGAGFQKFCRGETDVQNASRPIRKSELEACQKAGIQFIEIPVAYDALSILVNRQNTWAQCLTTAQLKSIWEPNAKVNYWKDLNPAWPNRRIVLFGAGTDSGTFDYFTEAIMGRAGSIRKDYFPSEDDNVIMRGVTGNPYAMAFVGFAYYEENKDKVKAVAIDHGKGCVLPSRETVLDGTYQPLSRPLFIYVNVKSLDRPEVQAFVDFYLSPAARRAIRSTGYVELPDEAYRIGQGLVARKKTGSFFTDLPPGTPLAKFIEELRKEVQ | soluble
4 | MRGSHHHHHHGSACMKRQGASSERKRARIPSGKAGAANGFLMEVCVDSVESAVNAERGGADRIELCSGLSEGGTTPSMGVLQVVKQSVQIPVFVMIRPRGGDFLYSDREIEVMKADIRLAKLYGADGLVFGALTEDGHIDKELCMSLMAICRPLPVTFHRAFDMVHDPMAALETLLTLGFERVLTSGCDSSALEGLPLIKRLIEQAKGRIVVMPGGGITDRNLQRILEGSGATEFHCSARSTRDSGMKFRNSSVAMGASLSCSEYSLKVTDVTKVRTLNAIAKNILV | soluble
5 | MRGSHHHHHHGSMAEKNYVMAIDQGTTSSRAIIFDRNGKKIGSSQKEFPQYFPKSGWVEHNANEIWNSVQSVIAGAFIESGIRPEAIAGIGITNQRETTVVWDKTTGQPIANAIVWQSRQSSPIADQLKVDGHTEMIHEKTGLVIDAYFSATKVRWLLDNIEGAQEKADNGELLFGTIDSWLVWKLTDGQVHVTDYSNASRTMLYNIHKLEWDQEILDLLNIPSSMLPEVKSNSEVYGHTRSYRFYGSEVPIAGMAGDQQAALFGQMAFEKGMIKNTYGTGAFIVMNTGEEPQLSDNDLLTTIGYGINGKVYYALEGSIFVAGSAIQWLRDGLRMIETSPQSEELAAKAKGDNEVYVVPAFTGLGAPYWDSEARGAVFGLTRGTTKEDFVRATLQAVAYQSKDVIDTMKKDSGIDIPLLKVDGGAAKNDLLMQFQADILDIDVQRAANLETTALGAAYLAGLAVGFWKDLDELKSMAEEGQMFTPEMPAEERDNLYEGWKQAVAATQTFKFKAKKEGE | soluble
6 | MRGSHHHHHHTDPALRAASTFTSDTLPADHKAAIRQMKHALRAQLGDVQQIFNQLSDDIATRVAEINALKAQGDAVWPVLSYADIKAGHVTAEQREQIKRRGCAVIKGHFPREQALGWDQSMLDYLDRNRFDEVYKGPGDNFFGTLSASRPEIYPIYWSQAQMQARQSEEMANAQSFLNRLWTFESDGKQWFNPDVSVIYPDRIRRRPPGTTSKGLGAHTDSGALERWLLPAYQRVFANVFNGNLAQYDPWHAAHRTEVEEYTVDNTTKCSVFRTFQGWTALSDMLPGQGLLHVVPIPEAMAYVLLRPLLDDVPEDELCGVAPGRVLPVSEQWHPLLIEALTSIPKLEAGDSVWWHCDVIHSVAPVENQQGWGNVMYIPAAPMCEKNLAYAHKVKAALEKGASPGDFPREDYETNWEGRFTLADLNIHGKRALGMDVGLCGR | soluble
7 | MRHHTIHPQLEQVFSAPYLRQLQKVTFQKGNYIGTQGQDITELTYILSGRVKIVRSLSNGKEHILQMPQQPQLLGDVELMTNQLAGSSVIALEEVQAAQLPLNNKEALLKDPIFLYHIGRNLAMALHRQGITASTNASYFVKERLATHILNIEEQDIFQLSPSILSSSFGTSYRHVQRVIKQFIDQGIIEKKAFKTYRILQRDSLETLAFID | not soluble
8 | MRIEVVNVSHIFHRGTPLEKKALENVSLVINEGECLLVAGNTGSGKSTLLQIVAGLIEPTSGDVLYDGERKKGYEIRRNIGIAFQYPEDQFFAERVFDEVAFAVKNFYPDRDPVPLVKKAMEFVGLDFDSFKDRVPFFLSGGEKRRVAIASVIVHEPDILILDEPLVGLDREGKTDLLRIVEKWKTLGKTVILISHDIETVINHVDRVVVLEKGKKVFDGTRMEFLEKYDPRFFTSKMLVMRRLVLKGEDPFSMSDDELLERVCNS | soluble
9 | MRIGELSKETGVSERSLRHYEEKGLLPSKRLANGYRDFDESAIEKVELIQMYLQIGLNLEETARMLRCLEIEPHLYDNPCSSILTLYEDKLNEVTKQITLLSNIQANLQKHVSLLKQAKEKE | not soluble
10 | MRIKKKNTRGNARNFITRSQAVRKLQVSLADFRRLCIFKGIYPREPRNKKKANKGSTAPTTFYYAKDIQYLMHEPVLAKFREHKTFARKLTRALGRGEVSSAKRLEENRDSYTLDHIIKERYPSFPDAIRDIDDALNMLFLFSNLPSTNQVSSKIINDAQKICNQWLAYVAKERLVRKVFVSIKGVYYQANIKGEEVRWLVPFKFPENIPSDVDFRIMLTFLEFYSTLLHFVLYKLYTDSGLIYPPKLDLKKDKIISGLSSYILESRQEDSLLKLDPTEIEEDVKVESLDASTLKSALNADEANTDETEKEEEQEKKQEKEQEKEQNEETELDTFEDNNKNKGDILIQPSKYDSPVASLFSAFVFYVSREVPIDILEFLILSCGGNVISEAAMDQIENKKDIDMSKVTHQIVDRPVLKNKVAGRTYIQPQWIFDCINKGELVPANKYLPGEALPPHLSPWGDAIGYDPTAPVEEGEEEESESESESEDQVEEEDQEVVAGEEDDDDDEELQAQKELELEAQGIKYSETSEADKDVNKSKNKKRKVDEEEEEKKLKMIMMSNKQKKLYKKMKYSNAKKEEQAENLKKKKKQIAKQKAKLNKLDSKK | soluble
11 | MRITVLILSTLLVTILNGLPIVPVVEDSISPEEVPEPSPEIEENTVPPPRVISPRVDVSVDVNEDGVLDIDEIRYAAFVHHGLSASVVEDLFKQVDTNRDNVLDAREFDAIRMLVLEKAENAALRYLQNVDTDRDGLLSLQEAQIYLLREYGIGYHDVARLWKLVPADLSDRMNSTLFSKLRRRVRGMTIRLARQIMKNADLNGDGHISVDEAQAIAFEQEGIGAGDVASMVGSVDENMDGELNAPEFADFERIIRARAIENSKKAMRVVDADNSGTLTLDEAKRVAFEHYGFDEATLAPFFGQADENEDGQLDNVEFAGFRSVIRARSVRDAMDKMKRIDTNGDGLVSNAEATDSTKKEDDMDSEETLALFNIADQNKSGKLDKVELADFNRLVRLSSIKFATDHFKEFDLDGNDAVTFDEIALLIEQKYGIPRSMIKTFFDRIDVDGSGDLMPAEIVDFRHLIRNHVSQQRQEKVYFLTL | not soluble
12 | MRIVEVYSHLNGLEYIQVHLPHIWEEIQEIIVSIDAEACRTKESKEKTKQGQILYSPVALNEAFKEKLEAKGWKESRTNYYVTADPKLIRETLSLEPEEQKKVIEAAGKEALKSYNQTDFVKDRVAIEVQFGKYSFVAYDLFVKHMAFYVSDKIDVGVEILPMKELSKEMSSGISYYEGELYNVIRQGRGVPAVPLVLIGIAP | soluble
13 | MRKAAALSLLVLVILSTTLAGCNFGKGSNEEDSKGTNLKLPCSIVSTISGEDVLYYEIEGDSLKKLDLDLKGHMEVYSEELGLAVYREFADKGTNLIITNGVKEHKISVEGNIEELIISPKGTKLLYRYNSGDKIGYKVLDLQNFKEFDFNENLAISGENVKFVNEDQLILYGVDLEKRQSGLYIYNIKDGSYTLEKQIVKAFIDYIDLVEDQVVLYTQSSIDGKKNCYIYNLDSKKESVISNEVGEIESLCKIGNVVYFIGTKGEGLRSLYSIDITNNKLDRLVYDFPKNISEKSKLIVVGDNIYFLGFNDSKEKNALYRYNLKDKSIKLIDSNKGQYIIIKMAGDPLEHHHHHH | not soluble
14 | MRKERRMIKLAIFDMDGTLTDEPSSWEYVHRRLHTDNHMNFRLYRNGFISYEEFFRSDVLAWLRMHPRLKKDDIAGILRDIKLRDGSSEVVNGLKERGLITAVVSGGISWLCDILNEYMQIDYNLSNVIATDEGGFVQPWGYIRVIPERKNIAVKSLQSMLHISKDETISIGDSMENGMIHINSSKAYIIGGKGRHGEIPLGNNIRNLLSYI | not soluble
15 | MRKKISIIGAGFVGSTTAHWLAAKELGDIVLLDIVEGVPQGKALDLYEASPIEGFDVRVTGTNNYADTANSDVIVVTSGAPRKPGMSREDLIKVNADITRACISQAAPLSPNAVIIMVNNPLDAMTYLAAEVSGFPKERVIGQAGVLDAARYRTFIAMEAGVSVKDVQAMLMGGHGDEMVPLPRFSTISGIPVSEFIAPDRLAQIVERTRKGGGEIVNLLKTGSAYYAPAAATAQMVEAVLKDKKRVMPVAAYLTGQYGLNDIYFGVPVILGAGGVEKILELPLNEEEMALLNASAKAVRATLDTLKSL | soluble
16 | MRKNISENNGKRPGSVKSRFLVSAFAVFLVAYSQTGRSSEEVLEQYKSLFAQQQKEFEKQRQIIIEQGKEIEKLKSRLDSLITTQPTDRSPASNVAGKDGQRPPQVSSPSTPKTVVAGPVGKKNDQVQTRTVPGNLPAGPVGQAPPKQDEKPRPPEMPRLSDAVGGVLTRKGKIVVEPALEYAFTDSNRIFLDAFTFLPAIAIGLIDVRQVDQHSLMASIGARYGVTDRLEVEARVPYRARFDEQRSRPVSIGAGIDETFNASGNGLGDIEFAARYQLNSGAGGWPILVGNMRATVPTGKGPFDIKYAQAQGVPGAVFPTEVPTGSGFFSFEPSVTALYATDPAVFFANLAYNYNMGTTEKALDGSGDKFKVDPGYAVGMTFGMGFGINERSSFNIGYGHRHIFNTKINNRTLKGSQLDIGQLLLGYAFKYSQQTTLNFSIAIGTTDDAQDVRLSFRVPMTFLEHHHHHH | soluble
17 | MRKPTYHQINPLIRLKETELLSEQQFQQLLEAETVEDVRNMLKSTVYQPYLTETFEEKFDYHSSEALGSLYRWLYEMAPEPAVVTLYTMRFTFHNLKILTKAERTGKDFDYLYLEDGRYSLNTVKSAIHTKNSSELEPALLEVIRDVFAYLEEGGLPQAIDILYDRAFLQQQRKLADELGYEELTKEVIAFIDLTNLSTMARGIVQHQNSNFLSTVLSSAGSITKKELLTYAEKSLVEFTAFVRTTNYGQLLEKIINKETNELNLLAFEKLKDDYLTSMYENGRTVAFGPLPLLAFLNAKEVEWKNLRLILVGKHSGFSNEKIRERMRKVNGV | not soluble
